Results on one substance are retold here after article PMC11389781.

Assay [1] has as its target human CaV2.2 α1B N1266C (VSD III labelling variant) (human) (UniProt Q00975).
Assay [2] deals with human CaV2.2 α1B D185C (VSD I labelling variant) (human) (UniProt Q00975).
Assay [3] addresses human CaV2.2 α1B N1580C (VSD IV labelling variant) (human) (UniProt Q00975).
For assay [4], the target named is human CaV2.2 pore-forming subunit α1B (CACNA1B), wild type (human) (UniProt Q00975).

Turning to “Gβγ complex of human Gβ1 and Gγ2 (from UniProt P62873 1-340; P59768 1-71)”, the shift of V0.5 of VSD III activation by coexpressed Gβγ (voltage-clamp fluorometry, ΔF-V); VSD III was not modulated by Gβγ in assay [1] is -0.1 mV. In addition, the shift of V0.5 of VSD I activation by coexpressed Gβγ (voltage-clamp fluorometry, ΔF-V) in assay [2] amounted to 21 mV. For the same substance, the shift of V0.5 of VSD IV activation by coexpressed Gβγ (voltage-clamp fluorometry, ΔF-V); modest inhibition in assay [3] amounted to 13 mV. Moreover, the shift of V0.5 of CaV2.2 pore opening toward positive potentials by coexpressed Gβγ (tail currents, cut-open oocyte voltage clamp, 20 ms pulses) in assay [4] worked out at 14 mV.
